In the supplement of paper PMC10126150:
± gives the standard deviation of the averaged measurements.

Test system: ATP
Experiment: switch fluorescence ratio, 500 uM ATP over buffer (Cy3 cluster intensity, sum of 5 cycles each) (fold (ratio)); higher = stronger signal-on switching upon ATP binding; sequences stand for … in TCGTCGGCAGCGTCAGATGTGTATAAGAGACAGTTTTTTTTTTTTTTTTTTTTTTTTT…TC
Conditions: aptamer strand: ATP DNA aptamer (quencher-CACCTGGGGGAGTATTGCGGAGGAAGG + anchor), 100 nM annealed; ATP concentration: 500 uM
Method in brief: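 Clusters with intensities outside 100-1000 RFU were excluded. The remaining Cy3-labelled switching-strand clusters on a modified Illumina MiSeq flow-cell had been annealed to 100 nM quencher-labelled ATP aptamer and imaged in selection buffer, then after 15 min with 500 uM ATP at 22 °C, for five cycles separated by NaOH stripping and re-annealing. The fluorescence ratio, averaged per switch-domain sequence, is each cluster's summed target-cycle Cy3 intensity over its summed buffer-cycle Cy3 intensity.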
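Also: ATP exposure 15 min at 22 °C before imaging.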

Sequence	switch fluorescence ratio
AGGGAACTGT	0.97 ± 0.056
AGGGAAGCTT	0.972 ± 0.035
AGGGAATAGA	0.989 ± 0.0094
AGGGAATAGG	1.01 ± 0.041
AGGGAATATT	1.01 ± 0.027
AGGGACATGC	1.0581 ± 0.00016
AGGGACGAAT	1.25 ± 0.092
AGGGACGGAG	1.01 ± 0.034
AGGGACTGGT	1.01 ± 0.036
AGGGAGAAAA	0.974 ± 0.039
AGGGAGAGCG	0.991 ± 0.071
AGGGAGAGTC	1.036 ± 0.0025
AGGGAGATAG	0.986 ± 0.016
AGGGAGCAGA	0.9948 ± 0.0059
AGGGAGCGAA	1.003 ± 0.0097
AGGGAGCGGC	1.11 ± 0.035
AGGGAGGGCT	1.02 ± 0.02
AGGGAGGTGG	1.02 ± 0.026
AGGGAGTTTG	0.983 ± 0.021
AGGGATACCT	1.04 ± 0.018
AGGGATCGG	1 ± 0.05
AGGGATCGGG	1.002 ± 0.01
AGGGATCTTT	0.963 ± 0.038
AGGGATTATT	1.02 ± 0.016
AGGGCACAGT	0.995 ± 0.016

Sequence	switch fluorescence ratio
AGGGCAGCGT	1.004 ± 0.0041
AGGGCAGGTA	1 ± 0.015
AGGGCCGAT	0.955 ± 0.046
AGGGCCGGGC	0.962 ± 0.044
AGGGCCGGTA	1.03 ± 0.026
AGGGCGCCCG	0.9884 ± 0.0023
AGGGCGGAGT	0.994 ± 0.022
AGGGCTATGT	0.9804 ± 0.005
AGGGCTCGGG	1.012 ± 0.0075
AGGGCTGCAT	0.9874 ± 0.0035
AGGGCTGCCT	1.05 ± 0.096
AGGGCTGGGT	1 ± 0.033
AGGGCTTAGT	0.995 ± 0.022
AGGGCTTGAA	0.991 ± 0.018
AGGGCTTGTG	0.987 ± 0.012
AGGGCTTTTA	1 ± 0.013
AGGGGAAGAG	0.994 ± 0.07
AGGGGAAGGT	0.984 ± 0.021
AGGGGAATAG	1.01 ± 0.016
AGGGGAATAT	1.03 ± 0.017
AGGGGAATTT	0.992 ± 0.03
AGGGGACTTC	1.04 ± 0.015
AGGGGAGGGA	1 ± 0.027
AGGGGATTGC	0.988 ± 0.019
AGGGGCACTC	0.992 ± 0.028

Sequence	switch fluorescence ratio
AGGGGCAGCT	0.977 ± 0.024
AGGGGCATTC	1.03 ± 0.064
AGGGGCCATT	1.009 ± 0.0098
AGGGGCGAGC	0.9616 ± 0.005
AGGGGCGGTT	0.978 ± 0.02
AGGGGGAAGA	1 ± 0.019
AGGGGGAGGC	1.01 ± 0.076
AGGGGGCATT	0.98 ± 0.011
AGGGGGCGAT	1.01 ± 0.039
AGGGGGCGTT	1.02 ± 0.042
AGGGGGCTGC	0.995 ± 0.023
AGGGGGGATA	1.02 ± 0.074
AGGGGGGCAA	1.03 ± 0.13
AGGGGGGCAC	0.984 ± 0.025
AGGGGGGCGG	0.992 ± 0.039
AGGGGGGGC	0.991 ± 0.015
AGGGGGGGGA	1.01 ± 0.05
AGGGGGGTGG	0.994 ± 0.052
AGGGGGGTGT	1.03 ± 0.028
AGGGGGGTT	1.01 ± 0.06
AGGGGGTAAA	0.975 ± 0.021
AGGGGGTACG	1.01 ± 0.035
AGGGGGTAGC	0.992 ± 0.047
AGGGGGTCGG	1.01 ± 0.03
AGGGGGTGGC	0.986 ± 0.048

Sequence	switch fluorescence ratio
AGGGGTATAG	0.995 ± 0.068
AGGGGTATGT	0.989 ± 0.023
AGGGGTCCTT	0.997 ± 0.026
AGGGGTCGGC	0.986 ± 0.016
AGGGGTGCAG	0.995 ± 0.01
AGGGGTGCTG	0.975 ± 0.039
AGGGGTGGAA	0.975 ± 0.022
AGGGGTGTGG	1.01 ± 0.017
AGGGGTTAAC	1.04 ± 0.042
AGGGGTTCGG	0.992 ± 0.026
AGGGGTTTAT	0.988 ± 0.021
AGGGGTTTCG	0.994 ± 0.025
AGGGTAATTT	1.043 ± 0.0063
AGGGTACTGC	1.02 ± 0.039
AGGGTAGAGC	1.09 ± 0.15
AGGGTAGATC	1.03 ± 0.018
AGGGTAGCTT	0.999 ± 0.031
AGGGTAGGGA	0.9917 ± 0.004
AGGGTAGGGT	1.01 ± 0.033
AGGGTAGTCC	0.986 ± 0.03
AGGGTATCAG	1.01 ± 0.039
AGGGTATTGT	1.02 ± 0.075
AGGGTCACTC	0.9857 ± 0.0043
AGGGTCAGGA	0.996 ± 0.021
AGGGTCGCCT	1 ± 0.04

Sequence	switch fluorescence ratio
AGGGTCGCGT	0.989 ± 0.034
AGGGTCGGCT	0.993 ± 0.02
AGGGTCGGGC	1.027 ± 0.0061
AGGGTCGGTG	0.98 ± 0.027
AGGGTCTACG	0.997 ± 0.044
AGGGTCTAGA	0.978 ± 0.023
AGGGTCTCGT	1.009 ± 0.0025
AGGGTCTTAG	1.02 ± 0.049
AGGGTGATAC	1.61 ± 0.62
AGGGTGGAAG	0.993 ± 0.038
AGGGTGGGTG	1.01 ± 0.024
AGGGTGTAGA	1.016 ± 0.0045
AGGGTGTCCA	0.973 ± 0.028
AGGGTGTCCG	1.09 ± 0.054
AGGGTGTGGC	1.0304 ± 0.00027
AGGGTTAGCT	0.991 ± 0.02
AGGGTTAGGA	1.02 ± 0.033
AGGGTTAGTC	1.03 ± 0.058
AGGGTTATGC	0.984 ± 0.031
AGGGTTGAGA	0.985 ± 0.033
AGGGTTGCTG	1.05 ± 0.074
AGGGTTGGAA	0.967 ± 0.011
AGGGTTGGAC	0.9774 ± 0.0057
AGGGTTGGG	1.03 ± 0.029
AGGGTTGGGA	0.9962 ± 0.0068

Sequence	switch fluorescence ratio
AGGGTTGGTG	1.04 ± 0.077
AGGGTTGTGC	1.03 ± 0.049
AGGGTTTCAG	0.98 ± 0.026
AGGGTTTTAC	1.017 ± 0.0013
AGGGTTTTGA	0.996 ± 0.054
AGGGTTTTTG	0.994 ± 0.016
AGGTAATCTT	0.979 ± 0.016
AGGTACGCTC	0.99314 ± 0.00048
AGGTACGGCC	1.03 ± 0.033
AGGTAGCGGC	0.9911 ± 0.0095
AGGTAGGCGC	0.98 ± 0.041
AGGTAGGGGG	0.993 ± 0.019
AGGTATCCAC	1.03 ± 0.035
AGGTATGCAG	0.9983 ± 0.0044
AGGTATGGTC	0.995 ± 0.031
AGGTATTTTT	1.009 ± 0.0042
AGGTCACGGC	1 ± 0.034
AGGTCAGAGA	1 ± 0.028
AGGTCATCGA	1.004 ± 0.0064
AGGTCCCTGT	1.01 ± 0.042
AGGTCCGGAA	1.14 ± 0.017
AGGTCGGGTA	0.979 ± 0.038
AGGTCGTGTT	0.992 ± 0.01
AGGTCTAATG	1.01 ± 0.03
AGGTCTGAAA	1.04 ± 0.042

Sequence	switch fluorescence ratio
AGGTGAAGGT	1.01 ± 0.0035
AGGTGAGAAT	1.16 ± 0.035
AGGTGATACG	1.06 ± 0.054
AGGTGCAATT	1.47 ± 0.54
AGGTGCCAG	0.96208 ± 0.00094
AGGTGGGCGC	0.94 ± 0.07
AGGTGGGGAC	1.01 ± 0.014
AGGTGGGGTC	0.984 ± 0.016
AGGTGGTTG	0.998 ± 0.028
AGGTGTAAGG	1.01 ± 0.051
AGGTGTTAAA	0.9941 ± 0.0033
AGGTGTTATG	1.03 ± 0.051
AGGTGTTGCG	1.016 ± 0.0056
AGGTTAATAG	0.996 ± 0.012
AGGTTAATCT	1.01 ± 0.018
AGGTTACTCC	1.07 ± 0.032
AGGTTAGTTT	0.985 ± 0.018
AGGTTCAAAT	0.996 ± 0.044
AGGTTCAACG	1.01 ± 0.028
AGGTTCACTA	1.01 ± 0.06
AGGTTCGATC	1.02 ± 0.043
AGGTTGCAGC	0.992 ± 0.032
AGGTTGCAGT	1.01 ± 0.077
AGGTTGCGGG	1 ± 0.014
AGGTTGGACT	0.99145 ± 0.00056

Sequence	switch fluorescence ratio
AGGTTGGCTT	0.96006 ± 0.0007
AGGTTGTACT	0.968 ± 0.016
AGGTTGTGGC	0.992 ± 0.033
AGGTTGTGTC	0.979 ± 0.047
AGGTTGTTGG	0.966 ± 0.016
AGGTTTAAAC	1.06 ± 0.063
AGGTTTAGTC	0.9945 ± 0.0026
AGGTTTATAT	0.999 ± 0.016
AGGTTTGGGC	0.997 ± 0.061
AGGTTTTATA	0.9919 ± 0.0094
AGGTTTTGAT	1.01 ± 0.019
AGGTTTTGTT	0.964 ± 0.017
AGGTTTTTCG	1.03 ± 0.03
AGTAAAAGCG	1.04 ± 0.017
AGTAAATTTG	0.9918 ± 0.0076
AGTAACATAT	0.993 ± 0.012
AGTAACCAAG	1.01 ± 0.037
AGTAAGAGCA	1.01 ± 0.011
AGTAAGATCA	0.992 ± 0.025
AGTAAGGCTC	1.14 ± 0.061
AGTAAGGGGA	1.08 ± 0.045
AGTAATACGG	1.3 ± 0.29
AGTAATATTT	1.03 ± 0.0061
AGTAATGGGT	0.996 ± 0.017
AGTAATGGTT	1.01 ± 0.014
